Data on three molecules can be found in article PMC11797056, “The ATPase activity of yeast chromosome axis protein Hop1 affects the frequency of meiotic crossovers” (Nucleic Acids Research, 2024).

One series addresses T1, Hop1 (Saccharomyces cerevisiae, UniProt P20050).
T1 construct: full-length His6-tagged WT Hop1
T1 sequence (P20050 1-605): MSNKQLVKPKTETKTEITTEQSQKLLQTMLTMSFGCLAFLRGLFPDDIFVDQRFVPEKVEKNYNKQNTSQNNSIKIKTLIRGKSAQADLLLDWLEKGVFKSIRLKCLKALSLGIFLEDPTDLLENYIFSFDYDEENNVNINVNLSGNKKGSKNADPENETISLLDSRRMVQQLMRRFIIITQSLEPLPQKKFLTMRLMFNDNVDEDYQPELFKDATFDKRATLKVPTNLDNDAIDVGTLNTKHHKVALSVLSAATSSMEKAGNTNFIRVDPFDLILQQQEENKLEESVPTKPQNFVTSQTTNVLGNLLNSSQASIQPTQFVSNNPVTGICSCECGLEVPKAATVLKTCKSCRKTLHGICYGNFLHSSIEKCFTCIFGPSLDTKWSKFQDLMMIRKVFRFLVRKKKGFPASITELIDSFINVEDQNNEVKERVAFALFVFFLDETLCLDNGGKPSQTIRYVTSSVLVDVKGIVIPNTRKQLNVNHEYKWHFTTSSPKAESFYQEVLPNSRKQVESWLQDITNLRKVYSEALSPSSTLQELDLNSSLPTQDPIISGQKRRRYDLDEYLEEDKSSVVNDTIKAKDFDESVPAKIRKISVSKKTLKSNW
Briefly: ITC (also ATP-agarose chromatography, UV crosslinking/filter binding, ATPase kinetics with Km […]).

A further series concerns the target T2, Hop1 WT (Saccharomyces cerevisiae, UniProt P20050 1-605).
T2 sequence: T1 sequence (P20050 1-605)
Briefly: MST; 25 nM HJ; EMSA: 25 mM HEPES pH 7.5, 0.5 nM 32P-HJ, 37 C 15 min, 8% PAGE in TBE (25 mM Tris base pH 8.0, 25 mM boric acid, 0.5 mM EDTA) at 4 C; MST: 25 nM 6-FAM HJ, buffer not in material. The following applies: protein: recombinant; tags: N-terminal His6 (pET28a); label: 5'-6FAM on HJ02; four-way junction of 4 strands.

Another series has as its target T3, Hop1 HORMA domain (S. cerevisiae, UniProt P20050 20-250, Red-tris-NTA label (in the MST only)).
T3 construct: Hop1, S. cerevisiae, N-terminal HORMA domain; Amplified from pET28a-HOP1 and cloned NdeI/XhoI into pET14b; also called N-terminal HORMA domain; N-terminal region of Hop1; source: E. coli Rosetta (DE3), pET-14b, purified (Ni2+-NTA); not shown: His tag (inferred: Ni2+-NTA purification); Red-tris-NTA labelling; anti-His detection
T3 sequence (looked up): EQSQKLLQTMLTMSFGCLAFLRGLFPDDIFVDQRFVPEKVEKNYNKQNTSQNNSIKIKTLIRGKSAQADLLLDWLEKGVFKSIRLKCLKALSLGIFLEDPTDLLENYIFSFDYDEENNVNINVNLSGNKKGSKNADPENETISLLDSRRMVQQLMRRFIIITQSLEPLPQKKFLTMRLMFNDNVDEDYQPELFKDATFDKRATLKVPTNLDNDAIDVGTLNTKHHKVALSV
Briefly: MST; Red-tris-NTA labelled Hop1 HORMA domain fixed at 20 nM, Hop1-CTD titrated 0.00031 to 10 uM; incubated at 37°C for 15 min; Pico-RED, 5% excitation power; Hill model; apparent Kd. The following applies: both partners purified.

Regarding `Nc1ncnc2c1ncn2C1OC(COP(=O)(O)OP(=O)(O)OP(=O)(O)O)C(O)C1O` (stereo not drawn) [ATP], the Kd on Hop1 is approximately 32900 nM.

B1: Holliday junction (HJ), 6-FAM (structured_DNA)
DNA 1: GACGCTGCCGAATTCTACCAGTGCCTTGCTAGGACATCTTTGCCCACCTGCCGGTTCACCC
DNA 2: TGGGTGAACCTGCAGGTGGGCAAAGATGTCCTAGCAATGTAATCGTCAAAGCTTTATGCCGTT
DNA 3: CAACGGCATAAAGCTTGACGATTACATTGCTAGGACATGCTGTCTAGAGGATCCGACTATCGA
DNA 4: ATCGATAGTCGGATCCTCTAGACAGCATGTCCTAGCAAGGCACTGGTAGAATTCGGCAGCGT
For the molecule B1, the Kd with Hop1 WT was determined as 206 nM.

B2: Hop1-CTD (domain or fragment)
chain: LSAATSSMEKAGNTNFIRVDPFDLILQQQEENKLEESVPTKPQNFVTSQTTNVLGNLLNSSQASIQPTQFVSNNPVTGICSCECGLEVPKAATVLKTCKSCRKTLHGICYGNFLHSSIEKCFTCIFGPSLDTKWSKFQDLMMIRKVFRFLVRKKKGFPASITELIDSFINVEDQNNEVKERVAFALFVFFLDETLCLDNGGKPSQTIRYVTSSVLVDVKGIVIPNTRKQLNVNHEYKWHFTTSSPKAESFYQEVLPNSRKQVESWLQDITNLRKVYSEALSPSSTLQELDLNSSLPTQDPIISGQKRRRYDLDEYLEEDKSSVVNDTIKAKDFDESVPAKIRKISVSKKTLKSNW
Turning to B2, the Kd with Hop1 HORMA domain stood at 1900 ± 500 nM.
